The record followed here is US20130058911.

This data set addresses metmyoglobin.

Sequence of metmyoglobin (P68082 2-154): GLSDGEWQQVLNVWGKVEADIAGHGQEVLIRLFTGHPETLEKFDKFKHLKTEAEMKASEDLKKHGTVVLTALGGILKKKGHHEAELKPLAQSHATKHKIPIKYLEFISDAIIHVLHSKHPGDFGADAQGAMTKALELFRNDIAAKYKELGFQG

B1: recombinant malate dehydrogenase (MDH) of Bacillus subtilis with C-terminal 6x His-tag (protein)
chain: MGNTRKKVSVIGAGFTGATTAFLIAQKELADVVLVDIPQLENPTKGKALDMLEASPVQGFDAKITGTSNYEDTAGSDIVVITAGIARKPGMSRDDLVSTNEKIMRSVTQEIVKYSPDSIIVVLTNPVDAMTYAVYKESGFPKERVIGQSGVLDTARFRTFVAEELNLSVKDVTGFVLGGHGDDMVPLVRYSYAGGIPLETLIPKERIDAIVERTRKGGGEIVNLLGNGSAYYAPAASLTEMVEAILKDQRRVLPTIAYLEGEYGYEGIYLGVPTIVGGNGLEQIIELELTDYERAQLNKSVESVKNVMKVLSHHHHHH
With B1, the “metmyoglobin reduction activity (change in A406 with NADH)” value is listed as “the activity of MDH was not found”.

B2: recombinant dihydrolipoyl dehydrogenase (DLD) with His tag (protein)
chain: MVVGDFPIETDTLVIGAGPGGYVAAIRAAQLGQKVTVVEKATLGGVCLNVGCIPSKALINAGHRYENAKHSDDMGITAENVTVDFTKVQEWKASVVNKLTGGVAGLLKGNKVDVVKGEAYFVDSNSVRVMDENSAQTYTFKNAIIATGSRPIELPNFKYSERVLNSTGALALKEIPKKLVVIGGGYIGTELGTAYANFGTELVILEGGDEILPGFEKQMSSLVTRRLKKKGNVEIHTNAMAKGVEERPDGVTVTFEVKGEEKTVDADYVLITVGRRPNTDELGLEQVGIEMTDRGIVKTDKQCRTNVPNIYAIGDIIEGPPLAHKASYEGKIAAEAIAGEPAEIDYLGIPAVVFSEPELASVGYTEAQAKEEGLDIVAAKFPFAANGRALSLNETDGFMKLITRKEDGLVIGAQIAGASASDMISELSLAIEGGMTAEDIAMTIHAHPTLGEITMEAAEVAIGSPIHIVKHHHHHH
Turning to B2, the “metmyoglobin reduction activity (change in A406 with NADH)” value is given as “Both of them showed 10 times or more higher metmyoglobin reduction activity than the empty vector”.

B3: recombinant dihydrolipoyl dehydrogenase (DLD) without His tag (protein)
chain: MVVGDFPIETDTLVIGAGPGGYVAAIRAAQLGQKVTVVEKATLGGVCLNVGCIPSKALINAGHRYENAKHSDDMGITAENVTVDFTKVQEWKASVVNKLTGGVAGLLKGNKVDVVKGEAYFVDSNSVRVMDENSAQTYTFKNAIIATGSRPIELPNFKYSERVLNSTGALALKEIPKKLVVIGGGYIGTELGTAYANFGTELVILEGGDEILPGFEKQMSSLVTRRLKKKGNVEIHTNAMAKGVEERPDGVTVTFEVKGEEKTVDADYVLITVGRRPNTDELGLEQVGIEMTDRGIVKTDKQCRTNVPNIYAIGDIIEGPPLAHKASYEGKIAAEAIAGEPAEIDYLGIPAVVFSEPELASVGYTEAQAKEEGLDIVAAKFPFAANGRALSLNETDGFMKLITRKEDGLVIGAQIAGASASDMISELSLAIEGGMTAEDIAMTIHAHPTLGEITMEAAEVAIGSPIHIVK
Turning to B3, the “metmyoglobin reduction activity (change in A406 with NADH)” value is “Both of them showed 10 times or more higher metmyoglobin reduction activity than the empty vector”.

B4: recombinant putative NAD(P)H nitroreductase (yodC) of Bacillus subtilis with C-terminal 6x His-tag (protein)
chain: MTNTLDVLKARASVKEYDTNAPISKEELTELLDLATKAPSAWNLQHWHFTVFHSDESKAELLPVAYNQKQIVESSAVVAILGDLKANENGEEVYAELASQGYITDEIKQTLLGQINGAYQSEQFARDSAFLNASLAAMQLMIAAKAKGYDTCAIGGFNKEQFQKQFDISERYVPVMLISIGKAVKPAHQSNRLPLSKVSTWLHHHHHH
Consider B4, for which the “metmyoglobin reduction activity (change in A406 with NADH)” value was “the activity of yodC was confirmed”; the “reactivity for myoglobin (relative to DLD)” value was “In comparison with DLD, yodC showed about 2.6 times and 22 times higher reactivity for potassium ferricyanide and myoglobin, respectively”.
